{"source": "patent US20070004010A1", "about": "“Engineered Enzymes and Their Use for Synthesis of Thioglycosides” (THE UNIVERSITY OF BRITISH COLUMBIA, priority 2002, published 2007)", "molecules": {"B1": {"name": "Abg E171G: acid/base position (E171) mutant of the β-glucosidase from Agrobacterium sp. (Abg) (protein, UniProt P12614 1-459, looked up, variant E171G)", "Beta-glucosidase": "MTDPNTLAARFPGDFLFGVATASFQIEGSTKADGRKPSIWDAFCNMPGHVFGRHNGDIACDHYNRWEEDLDLIKEMGVEAYRFSLAWPRIIPDGFGPINEKGLDFYDRLVDGCKARGIKTYATLYHWDLPLTLMGDGGWASRSTAHAFQRYAKTVMARLGDRLDAVATFNGPWCAVWLSHLYGVHAPGERNMEAALAAMHHINLAHGFGVEASRHVAPKVPVGLVLNAHSAIPASDGEADLKAAERAFQFHNGAFFDPVFKGEYPAEMMEALGDRMPVVEAEDLGIISQKLDWWGLNYYTPMRVADDATPGVEFPATMPAPAVSDVKTDIGWEVYAPALHTLVETLYERYDLPECYITENGACYNMGVENGQVNDQPRLDYYAEHLGIVADLIRDGYPMRGYFAWSLMDNFEWAEGYRMRFGLVHVDYQTQVRTVKNSGKWYSALASGFPKGNHGVAKG"}, "B2": {"name": "E171N: acid/base position (E171) mutant of Abg (protein, UniProt P12614 1-459, looked up, variant E171N)", "Beta-glucosidase": "MTDPNTLAARFPGDFLFGVATASFQIEGSTKADGRKPSIWDAFCNMPGHVFGRHNGDIACDHYNRWEEDLDLIKEMGVEAYRFSLAWPRIIPDGFGPINEKGLDFYDRLVDGCKARGIKTYATLYHWDLPLTLMGDGGWASRSTAHAFQRYAKTVMARLGDRLDAVATFNNPWCAVWLSHLYGVHAPGERNMEAALAAMHHINLAHGFGVEASRHVAPKVPVGLVLNAHSAIPASDGEADLKAAERAFQFHNGAFFDPVFKGEYPAEMMEALGDRMPVVEAEDLGIISQKLDWWGLNYYTPMRVADDATPGVEFPATMPAPAVSDVKTDIGWEVYAPALHTLVETLYERYDLPECYITENGACYNMGVENGQVNDQPRLDYYAEHLGIVADLIRDGYPMRGYFAWSLMDNFEWAEGYRMRFGLVHVDYQTQVRTVKNSGKWYSALASGFPKGNHGVAKG"}, "B3": {"name": "E171I: acid/base position (E171) mutant of Abg (protein, UniProt P12614 1-459, looked up, variant E171I)", "Beta-glucosidase": "MTDPNTLAARFPGDFLFGVATASFQIEGSTKADGRKPSIWDAFCNMPGHVFGRHNGDIACDHYNRWEEDLDLIKEMGVEAYRFSLAWPRIIPDGFGPINEKGLDFYDRLVDGCKARGIKTYATLYHWDLPLTLMGDGGWASRSTAHAFQRYAKTVMARLGDRLDAVATFNIPWCAVWLSHLYGVHAPGERNMEAALAAMHHINLAHGFGVEASRHVAPKVPVGLVLNAHSAIPASDGEADLKAAERAFQFHNGAFFDPVFKGEYPAEMMEALGDRMPVVEAEDLGIISQKLDWWGLNYYTPMRVADDATPGVEFPATMPAPAVSDVKTDIGWEVYAPALHTLVETLYERYDLPECYITENGACYNMGVENGQVNDQPRLDYYAEHLGIVADLIRDGYPMRGYFAWSLMDNFEWAEGYRMRFGLVHVDYQTQVRTVKNSGKWYSALASGFPKGNHGVAKG"}, "B4": {"name": "Abg E171Q: acid/base position (E171) mutant of the β-glucosidase from Agrobacterium sp. (Abg) (protein, UniProt P12614 1-459, looked up, variant E171Q)", "Beta-glucosidase": "MTDPNTLAARFPGDFLFGVATASFQIEGSTKADGRKPSIWDAFCNMPGHVFGRHNGDIACDHYNRWEEDLDLIKEMGVEAYRFSLAWPRIIPDGFGPINEKGLDFYDRLVDGCKARGIKTYATLYHWDLPLTLMGDGGWASRSTAHAFQRYAKTVMARLGDRLDAVATFNQPWCAVWLSHLYGVHAPGERNMEAALAAMHHINLAHGFGVEASRHVAPKVPVGLVLNAHSAIPASDGEADLKAAERAFQFHNGAFFDPVFKGEYPAEMMEALGDRMPVVEAEDLGIISQKLDWWGLNYYTPMRVADDATPGVEFPATMPAPAVSDVKTDIGWEVYAPALHTLVETLYERYDLPECYITENGACYNMGVENGQVNDQPRLDYYAEHLGIVADLIRDGYPMRGYFAWSLMDNFEWAEGYRMRFGLVHVDYQTQVRTVKNSGKWYSALASGFPKGNHGVAKG"}, "B5": {"name": "E171M: acid/base position (E171) mutant of Abg (protein, UniProt P12614 1-459, looked up, variant E171M)", "Beta-glucosidase": "MTDPNTLAARFPGDFLFGVATASFQIEGSTKADGRKPSIWDAFCNMPGHVFGRHNGDIACDHYNRWEEDLDLIKEMGVEAYRFSLAWPRIIPDGFGPINEKGLDFYDRLVDGCKARGIKTYATLYHWDLPLTLMGDGGWASRSTAHAFQRYAKTVMARLGDRLDAVATFNMPWCAVWLSHLYGVHAPGERNMEAALAAMHHINLAHGFGVEASRHVAPKVPVGLVLNAHSAIPASDGEADLKAAERAFQFHNGAFFDPVFKGEYPAEMMEALGDRMPVVEAEDLGIISQKLDWWGLNYYTPMRVADDATPGVEFPATMPAPAVSDVKTDIGWEVYAPALHTLVETLYERYDLPECYITENGACYNMGVENGQVNDQPRLDYYAEHLGIVADLIRDGYPMRGYFAWSLMDNFEWAEGYRMRFGLVHVDYQTQVRTVKNSGKWYSALASGFPKGNHGVAKG"}, "B6": {"name": "E171F: acid/base position (E171) mutant of Abg (protein, UniProt P12614 1-459, looked up, variant E171F)", "Beta-glucosidase": "MTDPNTLAARFPGDFLFGVATASFQIEGSTKADGRKPSIWDAFCNMPGHVFGRHNGDIACDHYNRWEEDLDLIKEMGVEAYRFSLAWPRIIPDGFGPINEKGLDFYDRLVDGCKARGIKTYATLYHWDLPLTLMGDGGWASRSTAHAFQRYAKTVMARLGDRLDAVATFNFPWCAVWLSHLYGVHAPGERNMEAALAAMHHINLAHGFGVEASRHVAPKVPVGLVLNAHSAIPASDGEADLKAAERAFQFHNGAFFDPVFKGEYPAEMMEALGDRMPVVEAEDLGIISQKLDWWGLNYYTPMRVADDATPGVEFPATMPAPAVSDVKTDIGWEVYAPALHTLVETLYERYDLPECYITENGACYNMGVENGQVNDQPRLDYYAEHLGIVADLIRDGYPMRGYFAWSLMDNFEWAEGYRMRFGLVHVDYQTQVRTVKNSGKWYSALASGFPKGNHGVAKG"}, "B7": {"name": "E171T: acid/base position (E171) mutant of Abg (protein, UniProt P12614 1-459, looked up, variant E171T)", "Beta-glucosidase": "MTDPNTLAARFPGDFLFGVATASFQIEGSTKADGRKPSIWDAFCNMPGHVFGRHNGDIACDHYNRWEEDLDLIKEMGVEAYRFSLAWPRIIPDGFGPINEKGLDFYDRLVDGCKARGIKTYATLYHWDLPLTLMGDGGWASRSTAHAFQRYAKTVMARLGDRLDAVATFNTPWCAVWLSHLYGVHAPGERNMEAALAAMHHINLAHGFGVEASRHVAPKVPVGLVLNAHSAIPASDGEADLKAAERAFQFHNGAFFDPVFKGEYPAEMMEALGDRMPVVEAEDLGIISQKLDWWGLNYYTPMRVADDATPGVEFPATMPAPAVSDVKTDIGWEVYAPALHTLVETLYERYDLPECYITENGACYNMGVENGQVNDQPRLDYYAEHLGIVADLIRDGYPMRGYFAWSLMDNFEWAEGYRMRFGLVHVDYQTQVRTVKNSGKWYSALASGFPKGNHGVAKG"}, "B8": {"name": "E171S: acid/base position (E171) mutant of Abg (protein, UniProt P12614 1-459, looked up, variant E171S)", "Beta-glucosidase": "MTDPNTLAARFPGDFLFGVATASFQIEGSTKADGRKPSIWDAFCNMPGHVFGRHNGDIACDHYNRWEEDLDLIKEMGVEAYRFSLAWPRIIPDGFGPINEKGLDFYDRLVDGCKARGIKTYATLYHWDLPLTLMGDGGWASRSTAHAFQRYAKTVMARLGDRLDAVATFNSPWCAVWLSHLYGVHAPGERNMEAALAAMHHINLAHGFGVEASRHVAPKVPVGLVLNAHSAIPASDGEADLKAAERAFQFHNGAFFDPVFKGEYPAEMMEALGDRMPVVEAEDLGIISQKLDWWGLNYYTPMRVADDATPGVEFPATMPAPAVSDVKTDIGWEVYAPALHTLVETLYERYDLPECYITENGACYNMGVENGQVNDQPRLDYYAEHLGIVADLIRDGYPMRGYFAWSLMDNFEWAEGYRMRFGLVHVDYQTQVRTVKNSGKWYSALASGFPKGNHGVAKG"}, "B9": {"name": "E171L: acid/base position (E171) mutant of Abg (protein, UniProt P12614 1-459, looked up, variant E171L)", "Beta-glucosidase": "MTDPNTLAARFPGDFLFGVATASFQIEGSTKADGRKPSIWDAFCNMPGHVFGRHNGDIACDHYNRWEEDLDLIKEMGVEAYRFSLAWPRIIPDGFGPINEKGLDFYDRLVDGCKARGIKTYATLYHWDLPLTLMGDGGWASRSTAHAFQRYAKTVMARLGDRLDAVATFNLPWCAVWLSHLYGVHAPGERNMEAALAAMHHINLAHGFGVEASRHVAPKVPVGLVLNAHSAIPASDGEADLKAAERAFQFHNGAFFDPVFKGEYPAEMMEALGDRMPVVEAEDLGIISQKLDWWGLNYYTPMRVADDATPGVEFPATMPAPAVSDVKTDIGWEVYAPALHTLVETLYERYDLPECYITENGACYNMGVENGQVNDQPRLDYYAEHLGIVADLIRDGYPMRGYFAWSLMDNFEWAEGYRMRFGLVHVDYQTQVRTVKNSGKWYSALASGFPKGNHGVAKG"}}, "key": {"Cex E127A": {"target": "T1, Cex E127A (Cellulomonas fimi, UniProt P07986, E168A)", "T1 sequence (P07986 42-484 E168A)": "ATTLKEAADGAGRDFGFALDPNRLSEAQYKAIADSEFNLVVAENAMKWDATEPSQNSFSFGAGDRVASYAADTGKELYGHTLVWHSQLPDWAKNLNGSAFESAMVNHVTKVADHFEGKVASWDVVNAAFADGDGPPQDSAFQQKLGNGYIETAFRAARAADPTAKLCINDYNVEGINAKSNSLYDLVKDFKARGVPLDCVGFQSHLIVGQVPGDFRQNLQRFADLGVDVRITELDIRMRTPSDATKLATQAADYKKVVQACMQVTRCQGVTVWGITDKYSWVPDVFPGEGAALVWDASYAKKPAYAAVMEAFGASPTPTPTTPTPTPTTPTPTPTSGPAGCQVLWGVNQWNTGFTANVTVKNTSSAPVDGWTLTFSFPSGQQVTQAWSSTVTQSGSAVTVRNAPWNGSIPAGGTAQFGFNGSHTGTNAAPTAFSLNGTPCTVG", "assay": "Functional donors and acceptors for Cex E127A", "type": "biochemical"}, "[1]": {"assay": "Saturation mutagenesis at the acid/base position (E171) of Abg: thioligase functionality", "type": "biochemical, Agrobacterium sp."}}, "data": [{"molecule": "O=[N+]([O-])c1ccc(O[C@@H]2O[C@H](CO)[C@@H](O[C@@H]3O[C@H](CO)[C@@H](S)[C@H](O)[C@H]3O)[C@H](O)[C@H]2O)cc1", "note": "[pNP 4′-deoxy4′-thio-β-cellobioside, pNP 4′-deoxy-4′-thio-β-cellobioside]", "values": [{"measurement": "acceptor function", "setting": "Cex E127A", "value": "Functional acceptors"}, {"measurement": "donor function", "setting": "Cex E127A", "value": "Functional donors"}]}, {"molecule": "O=[N+]([O-])c1ccc(O[C@@H]2O[C@H](CO)[C@@H](O[C@@H]3O[C@H](CO)[C@@H](O)[C@H](O)[C@H]3O)[C@H](O)[C@H]2O)c([N+](=O)[O-])c1", "note": "[DNP β-cellobioside]", "values": [{"measurement": "donor function", "setting": "Cex E127A", "value": "Functional donors"}]}, {"molecule": "OC[C@H]1O[C@@H](O[C@H]2[C@H](O)[C@@H](O)C(O)O[C@@H]2CO)[C@H](O)[C@@H](O)[C@@H]1S", "note": "(stereo partly shown) [4′-deoxy-4′-thio-cellobiose]", "values": [{"measurement": "acceptor function", "setting": "Cex E127A", "value": "Functional acceptors"}]}, {"molecule": "B1", "values": [{"measurement": "functionality as thioligase", "setting": "[1]", "value": "functionality as thioligases"}]}, {"molecule": "B2", "values": [{"measurement": "functionality as thioligase", "setting": "[1]", "value": "functionality as thioligases"}]}, {"molecule": "B3", "values": [{"measurement": "functionality as thioligase", "setting": "[1]", "value": "functionality as thioligases"}]}, {"molecule": "B4", "values": [{"measurement": "functionality as thioligase", "setting": "[1]", "value": "functionality as thioligases"}]}, {"molecule": "B5", "values": [{"measurement": "functionality as thioligase", "setting": "[1]", "value": "functionality as thioligases"}]}, {"molecule": "B6", "values": [{"measurement": "functionality as thioligase", "setting": "[1]", "value": "functionality as thioligases"}]}, {"molecule": "B7", "values": [{"measurement": "functionality as thioligase", "setting": "[1]", "value": "functionality as thioligases"}]}, {"molecule": "B8", "values": [{"measurement": "functionality as thioligase", "setting": "[1]", "value": "functionality as thioligases"}]}, {"molecule": "B9", "values": [{"measurement": "functionality as thioligase", "setting": "[1]", "value": "functionality as thioligases"}]}]}
